The results in this text go back to the nanobody polyreactivity screen of Harvey et al. (2022).

The nature of this data set: yeast display, Sf9 membrane polyspecificity reagent, FACS + sequencing; frameworks hold sequencing errors. Summed up:
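Polyreactivity labels are assigned by the sorting gate from which each nanobody was recovered. The gates were low and high (top ~1%), set on anti-HA fluorescence for expression and streptavidin fluorescence for reagent binding. Before sorting, galactose-induced (36–48 hours) yeast display cells were stained for 1 hour at 4 °C with 10% biotinylated, detergent-solubilized Sf9 membrane reagent.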
Take “QDQLVESCGGLVQAGGSLRISCAASGRIFLPTAMGGYRQAPGKERELVAAINSSDASTDFADSVQGRFTISRDHAKTTVYLQRNSLKPEDTAVYYCAAENDTSDAVRYDYWGQGTQVTVSS”: the “polyreactivity (PSR sort gate)” value is recorded as “low polyreactivity”.
In the case of “QDQLVESCGGLVQAGGSLRLICAAYGRIISINAMGWYRQAPVKERELVATISWRGGSTYYADSVKGRFTISRDNAKNTVYLQMNSLKPEDTAVYYCKKVFSERWARYFRYDYWVQGTQVTVSS”, the “polyreactivity (PSR sort gate)” value is “high polyreactivity”.
For “QDQLVESGAGLVQAGGSLRLSCAASGRTFAYNAMGWYRQAPGKERELVASITSGGSTNYADSVKGRFTISRDNAKNTVYLQMNCLKPEDTAVYYCNKDGKYHRVLYDYWGQGTQVTVSS”, the “polyreactivity (PSR sort gate)” value is “low polyreactivity”.
Consider “QDQLVESGGCLVQAGGSHRLSSAASGIIIWYNTMGRYRQAPGKEREFFARISRRVGSTYYADSVKGRFTISRDNAKNTVYLQMNSLKPEDTAVYYCNRTRYRSFHYDYWGQGTKVTVSS”, for which the “polyreactivity (PSR sort gate)” value is “high polyreactivity”.
In the case of “QDQLVESGGCLVQAGGSLRLSCAASGNIFDTYVMGWYRQAPGKEMELVAAITSDGGTYYADSVKARFTISRDNAKNTVYLQMNSLKPEDTAVYYCAADTYYYPIHDYWGQGTQVTVSS”, the “polyreactivity (PSR sort gate)” value was “low polyreactivity”.
Regarding “QDQLVESGGCLVQAGGSLRLSCAASGSISDSKAMGWYRQAPGKERELVAAISNGGSTNYADSVKGRFTISRDNAKNTVYLQMNSLKPEDTAVYYCARDYDIQNHEYDYWGQGTQVTVSS”, the “polyreactivity (PSR sort gate)” value is “low polyreactivity”.
In the case of “QDQLVESGGGIVQEGGSLRLSCAASGLIFRVYAMGWYRQAPGKEWELVATITRGGRTYYADSVKGRFTISRDNAKNTVYLQMNSLKPEDTAVSYCAVLSVRRSYNYWGQGTQVTVSS”, the “polyreactivity (PSR sort gate)” value is recorded as “high polyreactivity”.
Consider “QDQLVESGGGLDQAGGSLRLSCAASGRIFQKYAMACYRQAPGKERELVAAISSGDSTYADSVKGRFTISRDNAKNTVYLQMNSLKPEDTAVYYCAADSHYQEDFRIQYDYWGQGTQVTVSS”, for which the “polyreactivity (PSR sort gate)” value is given as “low polyreactivity”.
Consider “QDQLVESGGGLFQAGGSLSLSCAASGNTFYWNAMGWYRQATGKEREFVAAISTTGVSTYYADSVKGRFTISRDNSKNTVYLQMNSLKPEDTAVYYCASEIIGYHTIYDYWGQGTQVTVSS”, for which the “polyreactivity (PSR sort gate)” value is recorded as “low polyreactivity”.
On to “QDQLVESGGGLGQAGGSLRLSCAASGSNFRPNAMGWYRQAPGKEMELVASITRNGGSTYYADSVKGRFTISRDNAKNTVYLQMNSLKPEDTAVYYCNAGYYYWGQGTQVTLSS”, for which the “polyreactivity (PSR sort gate)” value is “high polyreactivity”.
Consider “QDQLVESGGGLLQAGGSLRLICAASGYTLQGYAMGSSRQATGKERELVAAISSNGGSTYYADSVKGRFTISRDNAKNTVYLEMNSLKPEDTAVYYCNAQYIVYYRYARITKYDYWGQGTQVTVSS”, for which the “polyreactivity (PSR sort gate)” value is listed as “high polyreactivity”.
With “QDQLVESGGGLVEAGGSLRLSCAASGRTFWLNAMGWYRQAPGKERELVATISSSSGSTTYADSVKGRFTSSRDNAKNTVYIQMNSLKPEDTAVYYCNVDDPFYSGVVEFDYWGQGTQVTVSS”, the “polyreactivity (PSR sort gate)” value is “low polyreactivity”.
As for “QDQLVESGGGLVHAGGSLRLSCAASVSIFVRNAMGWYRQAPGKERELVAADSVKGRFTISRDNAKNTVYLQMNSLKPEDTAVYYCNKDYIIRRGPIVYYGFDYWGQGTQVTVSS”, the “polyreactivity (PSR sort gate)” value is “low polyreactivity”.
“QDQLVESGGGLVHAGGSLRLSSAASGLTFSYYAMGWYRQAPGKERELVAAIDYSGGTTYADSVKGRFTISRDNAKNTVYLQMNSLKPEDTAVYYCADAPDGWFASGDEYWGHGTQVTVSS”: the “polyreactivity (PSR sort gate)” value is given as “high polyreactivity”.
Regarding “QDQLVESGGGLVKAGGSLRLSCAASGGTFYYYAMGWYRQAPGKERELVAANTRSGGNAYYADSVKARFTISRDNAKNTVYLLLHSLKPEDTAVYYCAAPFVNFVGSLVYAGYDSCGQGTQVTVSS”, the “polyreactivity (PSR sort gate)” value is recorded as “low polyreactivity”.
For the sequence “QDQLVESGGGLVQAGCSLRFTCAACGRIFHYYAMGWYRQAPGKERELVAAITSSRGSTYYADSVKGRFTISRDNAKKTGYVQMNSLQPEDTAVYYCAAGLIVGRFVRYDYWGQGTHVTVSS”, the “polyreactivity (PSR sort gate)” value is reported as “high polyreactivity”.
For “QDQLVESGGGLVQAGGCLRLSCAASGSIFYIYGRGWYRQEPGKERELVAAISRSGGRTYYADSVKGRFTISRDTANNTVYLQMNSLKPEDTAVYYCAARDHYSTGGMNYWGQGTQVTVSS” the value was “high polyreactivity”; for “QDQLVESGGGLVQAGGRLRLSSAASVSTFLPNTLGWYSQAHGKERELVADISWSGGSTYYADSVKGRLTISRDNAKNTVYLQMNRLKPEDTADSYCAADIASGYYWYDYWGQGTQVTVTS”, “low polyreactivity”; for “QDQLVESGGGLVQAGGSLGLSCAASGIIFYGYAMRWYRPAPGKERELVAAISRSGGSTYYADSVKGRFTISRDNAMNTVYLQMNSLKPEDTAVYYCAASGVTYDYWGQGTQVTVSS”, “high polyreactivity”.
Consider “QDQLVESGGGLVQAGGSLPLSCAASGRTISAYAMGWYRQAPGKERELVAAISRRGGSTYYADSVKGRFSISRDNAKNTVYLQLNSLKPEETAVYYCAADVYKQYGYYYWGEGTQVTVSS”, for which the “polyreactivity (PSR sort gate)” value was “high polyreactivity”.
As for “QDQLVESGGGLVQAGGSLRISCAASGITFRYYAMGWYRQAPGKERELVAAITSGGRTYYADSVKGRFTISRDNAKNRVYLQMISLKPEDTAVYYGNAVTFSFYLYAWGQGTQVTVSS”, the “polyreactivity (PSR sort gate)” value is recorded as “high polyreactivity”.
As to “QDQLVESGGGLVQAGGSLRLICAASGRTFWAYAMGWYRQAPGKERELVAAISVSGGRTYYADSVKGRFTISRDNAKNTVYLQMNSLKPEDTAVYYCNKRYLKSYEYYWGQGTHVTVSS”, the “polyreactivity (PSR sort gate)” value is recorded as “high polyreactivity”.
As for “QDQLVESGGGLVQAGGSLRLICAASGSNLNNYAMGWSRQAPGKERELVAAISSSGGTNYADSVKGRFTISRDNAKNTVYLQMNSLKPEDTAVYYCNADVLEGGYDYWGQGPQVTVSS”, the “polyreactivity (PSR sort gate)” value is “low polyreactivity”.
Regarding “QDQLVESGGGLVQAGGSLRLSCAASAFTLSPNSMGWDRQAPGKEREFVAAISQRGGSTYYADSVKGRFTISRDNAKNTVYLQMNSLKPEDSAVYYCARDTKYKYDYWGQGTQVTVSS”, the “polyreactivity (PSR sort gate)” value is recorded as “low polyreactivity”.
As to “QDQLVESGGGLVQAGGSLRLSCAASARIFERYAKGWYRPPPGKEMELVAAISYRGGRTYYADSVKGRFTISRVNAKNTVYLQMNSLKPEDTAVYYCAAYTYFRDWAEYDYWGQGTQVTVSS”, the “polyreactivity (PSR sort gate)” value is “high polyreactivity”.
In the case of “QDQLVESGGGLVQAGGSLRLSCAASGFIFFYYAMGRYRQAPGKERELVAAISSSGGSTYYADSVKGRFTISRDNAKNTVYLQMNSLKPEDTAVYYCAAQYNVPRDKYYYWGQGTQVTVSS” it was “high polyreactivity”; in that of “QDQLVESGGGLVQAGGSLRLSCAASGFIFGGYAMGWYRQAPGKERELVAAISSSGGSTYYADSVKGRFTISRDNAKNTVYLQMNSLKPEDTAVYYCAKVGWSRRYYYWGQGTQVTVSS”, “high polyreactivity”; in that of “QDQLVESGGGLVQAGGSLRLSCAASGFIFGYYAMGWYRQAPGKERDLFAAINKNGGSTYYADSVKGRFTISRDNAKNTFYLQRNSLIPEDTAVYYCASRARGYAWTYDYWGQGTQVTVSS”, “high polyreactivity”.
In the case of “QDQLVESGGGLVQAGGSLRLSCAASGFIFIPNAMGWYRQAPRKERELVAAISFSDGTTYYADSVKGRFTISRDYEKNTVYLQMNSLKPEDTAVYYCAAEGYQSQYDYWGQGTQVTVSS” it was “high polyreactivity”.
In the case of “QDQLVESGGGLVQAGGSLRLSCAASGFIFYSNAMGWYRQEPGKERELVAAITSGGGSTYYADSVKGRFTISRDTAKNTVYLQMNSLKPEDTAVDYCAVSIGRYPYRYGYWGQGTQVTVSS” it was “high polyreactivity”; in that of “QDQLVESGGGLVQAGGSLRLSCAASGFIFYYYAMGWYRPAPGKERELVAAISGSGGSTYYADSVKGRFTISRDNAKNTVYLQMNSLKPEDTAVYYCNARRPGYYVYYFAYDYWGQGTQVTVSS”, “high polyreactivity”; in that of “QDQLVESGGGLVQAGGSLRLSCAASGFNFYKYAMGWYRQAPGKERELVAAITGRGGSTYYADSVKGRFTISRDNAKNTVYLRMNSLNPEDTAVYYCAASQRSGHPSYDYWGQGTQVTVSS”, “high polyreactivity”.
Regarding “QDQLVESGGGLVQAGGSLRLSCAASGFTFACYTMGWYRQAPGKERELVAGIDWSGGSTYYADSVKGRFTISRDNEKNTVYLEMNSLKPEDTAVYYCNAAVLYYVYPGYDYWGQGTQVTVSS”, the “polyreactivity (PSR sort gate)” value is “high polyreactivity”.
On to “QDQLVESGGGLVQAGGSLRLSCAASGFTFGENSMGWYRQAPGKERELVAANRYSGGSTYYADSVKGRFTISRDNAKNTVYLQMNSLKPEDTAVYYCNADTYALGPAVIPGDEYWGQGTQVTVSS”, for which the “polyreactivity (PSR sort gate)” value is “low polyreactivity”.
On to “QDQLVESGGGLVQAGGSLRLSCAASGFTFTRNAMGWYRQAPGKEREFVAAISVGGGRTYYADSVKGRFTISRDNAKNTVYLQMNSLKPEDTAVYYCNAYQGWRYDYWGPGTQVTVSS”, for which the “polyreactivity (PSR sort gate)” value is “high polyreactivity”.
As for “QDQLVESGGGLVQAGGSLRLSCAASGFTFYRYAMGWYRQAPGKERELVATIRNGGNTNYADSVKGRFTISRDNAKNTVYVQMNSLKPEDTAVYYCAKTVLAGMDWGQGTQVTVSS”, the “polyreactivity (PSR sort gate)” value was “high polyreactivity”.
Consider “QDQLVESGGGLVQAGGSLRLSCAASGFTIGYNVMGWYRQAPGKERELVATISWNGARTYYADSVKGRFTISRDNAKNTVYLQMNSLKPEETAVYYCAARRYYRGEYDYWGQGTQVTVSS”, for which the “polyreactivity (PSR sort gate)” value is reported as “low polyreactivity”.
For “QDQLVESGGGLVQAGGSLRLSCAASGFTLATYAMGWYSPAPGKEREWVAAITRSGGSTDDADSVKGRFTISRDIAKNTVYVQMNSLKPEDTAVYYCNAREVRYEYNYWGHGTQVTVSS” the value was “low polyreactivity”; for “QDQLVESGGGLVQAGGSLRLSCAASGGTFIYNTMGWYRQAPGKERELVAAINSGGSTTYADSVKGRFTISRDNAKNTVYLQMNSLKPEDTAVYYCAAVYVYLGVYARYPIWGYYYWGQGTQVTVSS”, “low polyreactivity”.
In the case of “QDQLVESGGGLVQAGGSLRLSCAASGIIFQYYAMGWYRQAPGKERELVAAISWSGGSTYYADSVKGRFTISRDNAKNTVYLQMNSLKPEDTAVYYCAARSRSYWPYEGDYWGQGTQVTVSS” it was “low polyreactivity”.
In the case of “QDQLVESGGGLVQAGGSLRLSCAASGIILDHYSMGWYRQAPGKERELVAAISSGTRTNYADSVKGRFTISRDNAKHTVSLQMNSLKPEDTAVYYCAATIYRRYRSKYSITSYWGQGTQVTVSS” it was “high polyreactivity”.
